Reference: the DeepSol protein solubility set

Assay: soluble on expression in E. coli; label from the status in PepcDB or PDB records

| Sequence | soluble on expression in E. coli |
| --- | --- |
| MEDLRRYICDNTQKNIVMLVGRKVSDISKIARSYGNACMLRSFQGFRIVKSIYYYEDEVKISADGIVLCKDSLDELLRTVEQNNHVEIRNAVATFYDEMSSMGMNGESMNLNINYLLFQFIHLASEQDDNVNQQEILRLISESSFKTGIERGSRAHMTRFCCEYGDYLSQLRKNVSRGVIGMVEKEVRDNYATNITLKSLSEKYYVNSAYLGQLFRKKYGQSFKDYLNNYRMERAAELLLRTDKKIIQIAEEVGYHDMDYFVNRFIQVKGCTPARFRRQMQSGE | not soluble |
| MGSDKIHHHHHHMEDLNSLYYFTQVVEHGGFAPAGRALDMPKSKLSRRIADLEDRLGVRLLNRTSRHCSLTEIGQAYYNRCLAMRVEAEGAAEIIERNRSEPRGLVRISCPTTLLNSWVGPMLTRYMLKYPQVELFIESTNRRVDLLHEGFDIALRVRFPPLENTDMVMKVLSNSTQCLVGQPQYLAQLPKGFDPQLLGTLPSVHWGSAQREYQWELFQGEDNSRSIVIPHTPRMVTDDLFALRHFVVAGVGIAHLPRVAVREDLAAGRLVELIPDWHPRCGIVHAIFPSRRGLLPSVRALIDHLAEEFAISDMA | not soluble |
| SLKDELANIPGIQFVDHVAIAVKQGDLEGQVAAYKMLGFTEVHREDVLGGDQVREVLLRIGDGPNLIQLLEPLNASSPVQKLIEKNGGRGGFAHVAFRVRNARESFDAMTAQGFHIIDKAPRKGSRGTTVFFVHPKSLDSAPFGFLIEIVEEPVEG | soluble |
| MGSDKIHHHHHHMTVEFDAARLGPILYYRGLEGDALQLAAMVMLPIGERPETLRTDAGDHAPTLLREIGRSAVWRYDFGLTPSCGSYRLGDQSYDVQTDLHGDMRIAFASCNGEEKGDLDRDQEERNRMWAHMCAEHRRAPFALLLQGGDQIYADEATEGHPLSEDWPDKAGRPRNAEELKDLADHLRLRFAERYVQALFGEAPSWIMARVPTLAIWDDHDICDGWGSLYRSKTHSEVGQCLYAVAREMYLLFQHAAVEGDIPDLFMDETGTSLSWQRALPGVKLLAPDLRAERGRRQVLGAYGWSAVEAMKPGSEHTFVISSVPLLGPRLSLVEGLMLMIPTMQKYEDDLRDQWQSRAHRKEWIRMLKQVIAWREEAPVTILSGEIHLATRAEMGPDETRVHQLVASGIAHRAPPQSYARSLGTLAGLGDAPVSGHPIRIHPLPGQSQRYTAERNYLELRRTHGKWHAVWHLEESGDTVPMVLE | not soluble |
| MGSDKIHHHHHHMKNFSLWCDFIENSFLDNEFLNLLSHGINGATSNPAIFKNAILNSPIYKDKILKLKEKKTKDIYEELAISDIQKAADKLAPLFYQKNDGFISIEIDPRLHDNTTLSLGEAKRLYSAIGKENIMIKIPATKASYEVMYELMKNGISVNATLIFSLEQSQKCFEALNAGLVEFRKNNIALKEQNTRTPQAVISIFVSRFDRLLNPKAKEQNRIGILNANLAYNNIYSKNEPNIRALFASTGVKGDDLPKDYYIKELLFENSVNTAPLDAIEAFKGKMHFKKPLMNFEIYTELNQIISQSEREKACNDLLSDGLEQFCIAFEDILKAL | not soluble |
| MKNIGVNINSCKDPDGTIRKYVEKVIKEEKKDVQVKFYDELNYFDEVCKTKPDFFIAFGGDGTILNAARNLVSCGIPIFSVNIGHLGFLSSIEFKDFKDAIHKIFKGEYFFQERTMLKCSFIKGNSKKVFYSLNEVVLYKGNMAKILKYNIDVDDKFYMGFKSDGIIISTPTGSTAYNLSAGGPIIYPNLDLISLTPICPQGPYAGTIVLDGKSNITISGIDANENVFITVDGRQPVDVKGVSFIEISKLNYKCKLLKLKDYNYFEVLRKKIILRTEECEGDKYMAGDPLEHHHHHH | soluble |
| MGSDKIHHHHHHAQDKPQEEGFVFTTVKENPITSIKNQNRSSTCWSFSSLGFLESELLRTGKGEYDLSEMFVVHHTMVDRAVNYVRYHGDSSFSPGGSFYDIMFCMKNYGLVPQDAMPGIMYGDSLPVHNELDATAGAYVNAIAKGNLKKLTPVWKKGLCAIYDTYLGQCPEKFTYKGKEYTPMTFAQSLGLNPDDYVSLTSYTHHPFYSQFAIEIQDNWRNGLSYNLPLDEFMAVMDNAVKNGYTFAWGSDVSEEGFTRDGIAVVPDAAKGAELTGSDMARWTGMTAADKRKELTSKPLPEMKITQEMRQTAFDNWETTDDHGMIIYGIAKDQNGKEYFMVKNSWGTNNKYKGTWYASKAFVAYKTMNILVHKDALPKDIAKKLGIK | not soluble |
| MTDPSQMQAEELLSFLEEGGTLKMLHDVSADTIEHIYAVGYNFFQSGKIEQAAKVFQLLSMLDHYQARFFIGLGAARQELGEYLQAIDAYSYAALVDINDPRPPFHSAECHLKLEQLTEAESGFYSAKEMSAGKSQYADLHQRAGIMLEAVRNKRSNLEHHHHHH | soluble |
| MGRIAVIGAGVAALAAARSLVLAGRRPLLIAPDREVISRGETLSPAAAALLDRLQWADLLDADSALPSEGRFSVWGDATLRQAAQGVGAWHLDRARFERQMRAKLDNDAIECHPIIVTMLVHHCDGVVLELGDGRVVFADAAIDCSGRAAVSSGAAAGRRRTDRLVAVWRVLDLPDDTEPAAATLIEAVPLGWWYMAPLPGDRMMLGLFTDTDLVPPGAAQDGATWTGLAASTVAIAPRLRSLGLDVSAAREPPQVAPAATVTASRLIEGRILRAGDAAAALDPLGANGLATALWSGMAAAEAALTLTEGEPERADAYERDYLQGIAQHLVSQQAMYAAEPRFADAPFWQRRRAVVSSHPQKETLPLEHHHHHH | not soluble |
| MGSDKIHHHHHHMTEITTLSQFLTTANTQFQVYDLGRRVQHIDALAFHQIESLLAPYPYPIQGHAQLGLVFWQQSAQPYIWFLKLPLDEQGLLSPAPRSQFIQMILDALGRDLTQELTEAQQEQFANHPFSFKPNQHKLALFNALVRQQLGQPASSQYEFAAQYLSEQAVIGESSAVENESHSWEQLGLQGIADVCVRAQSLDNMDSLIRSFDFSPLPVHAALCQCLEHLPLEPSLAEKIYLLFEQASNEHKASYLAALASSPSLSIKAIAHLAQHNLLDANHLVTIAARNWQALKDDSCRKSYLEALALQEQGFFNQVFADIVAIPSLRQALLLDLRNPERSNILSIAIGGLFKAAQS | not soluble |
| MAGEKFQKKGKEKWKEKVWYTVEAPPYLGSKEVSVALGEDSNSMVNRVVEVPISELTGNFKKSNEKALFRITNCEGTKCKTIFIGHYIGDDYIRRLVRRRKERIDIIEDVKTSDNSIITVKIVVVTDGKVTNTKKFQIRKVLTDFILNKGLSLPYSEFVRYLIGDDIYNDMISATKDIYPLKKIEVRKSELVSLSGISEIHAGSQLEHHHHHH | soluble |
| MGSDKIHHHHHHMAVRMLDIARRFNMLSERIRRESVELGIPAIDPEDGLILSSAAFYVGGGTGSYVDAGAGIGYSTIWIAYGAYHRCTDITCKIVAIEYDVELASILSRNLREVEAMFRGRIEFEVVSGDALDYFSRLEEKGREVFDMAFVDIEKGDYPEALERLENLLTAGGVAAFYNAFQPPPPPLFFDMVSKRPWKPVVLPTPAGLLLAVKTAG | not soluble |
| MGSSHHHHHHSSGLVPRGSHMQAATVVINRRALRHNLQRLRELAPASKMVAVVKANAYGHGLLETARTLPDADAFGVARLEEALRLRAGGITKPVLLLEGFFDARDLPTISAQHFHTAVHNEEQLAALEEASLDEPVTVWMKLDTGMHRLGVRPEQAEAFYHRLTQCKNVRQPVNIVSHFARADEPKCGATEKQLAIFNTFCEGKPGQRSIAASGGILLWPQSHFDWVRPGIILYGVSPLKDRSTGADFGCQPVMSLTSSLIAVREHKAGEPVGYGGTWVSERDTRLGVVAMGYGDGYPRAAPSGTPVLVNGREVPIVGRVAMDMICVDLGPQAQDKAGDPVILWGEGLPVERIAEMTKVSAYELITRLTSRVAMKYVD | soluble |
| MSLARTLVIGNKNYSSWSMRPWIALKATGVAFDEVVIPLYTGDADKRRILAFTPAGKVPVLVDGDVTIWDSLAIIEYAAERFPKAQLWPDDVAARAHARSVAAEMHSGFAALRNECGMNIHRPVGAKQLSDAARADIARVQEIWIDCRHRYGRFGPYLFGRFSGVDAMFAPVVHRFRTYAVELDPIAQGYVEVMMALPAFQEWTQAALAETWVIDKFETEGHHHHHH | soluble |
